# From patent US20260022175A1 (Chugai, published 2026)
# T1: human FcγRIIb extracellular domain (human, UniProt P31994 43-217)
# T1 construct: extracellular domain; also called hFcγR IIb
# T1 sequence (looked up): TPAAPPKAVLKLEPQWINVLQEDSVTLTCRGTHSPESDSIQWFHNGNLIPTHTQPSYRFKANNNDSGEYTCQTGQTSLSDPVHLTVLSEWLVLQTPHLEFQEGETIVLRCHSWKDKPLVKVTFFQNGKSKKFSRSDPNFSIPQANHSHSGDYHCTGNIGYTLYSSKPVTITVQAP
# T2: human FcγRIIa H extracellular domain (human, UniProt P12318 34-217)
# T2 construct: extracellular domain; also called hFcγR IIa H
# T2 sequence (looked up): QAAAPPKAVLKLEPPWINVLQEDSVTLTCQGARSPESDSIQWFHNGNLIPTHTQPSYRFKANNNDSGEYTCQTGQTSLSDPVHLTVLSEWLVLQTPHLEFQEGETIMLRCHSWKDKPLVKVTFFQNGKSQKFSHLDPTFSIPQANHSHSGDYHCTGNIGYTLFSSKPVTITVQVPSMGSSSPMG
# T3: human FcγRIIa R extracellular domain (human, UniProt P12318 34-217)
# T3 construct: extracellular domain; also called hFcγR IIa R
# T3 sequence (looked up): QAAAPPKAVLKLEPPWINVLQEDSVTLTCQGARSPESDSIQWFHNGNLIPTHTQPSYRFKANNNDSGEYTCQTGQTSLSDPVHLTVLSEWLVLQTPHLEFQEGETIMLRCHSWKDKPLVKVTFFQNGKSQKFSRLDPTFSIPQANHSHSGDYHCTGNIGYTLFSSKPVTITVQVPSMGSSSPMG
# T4: hFcγRIIaH on hFcγRIIaH-expressing Jurkat cells (human, UniProt P12318 34-317)
# T4 sequence (looked up): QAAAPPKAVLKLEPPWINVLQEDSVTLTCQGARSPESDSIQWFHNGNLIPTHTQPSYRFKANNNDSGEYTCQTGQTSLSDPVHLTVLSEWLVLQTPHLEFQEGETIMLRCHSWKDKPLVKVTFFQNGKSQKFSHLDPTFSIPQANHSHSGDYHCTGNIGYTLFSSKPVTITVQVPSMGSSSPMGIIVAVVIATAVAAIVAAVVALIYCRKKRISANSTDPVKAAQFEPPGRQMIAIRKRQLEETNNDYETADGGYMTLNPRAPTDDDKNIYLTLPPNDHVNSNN
# Assays:
# [1] = molecular target: hFcγRIIIaV on hFcγRIIIaV-expressing Jurkat cells (human, UniProt P08637 17-254); assay: cell-based or functional assay
# [2] = molecular target: T1, human FcγRIIb extracellular domain; assay: SPR Biacore 8K+, antibody captured, FcγR as analyte, steady state affinity model
# [3] = molecular target: T5, human FcγRIa extracellular domain (human, UniProt P12314 16-292); assay: SPR Biacore 8K+; KD of G1d divided by KD of this antibody;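 also: antibodies captured on an anti-Fab-kappa streptavidin chip, soluble FcγR ectodomains flowed over, KD by steady-state fit for FcγRIIb and Langmuir kinetic model for the other receptors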
# T5 construct: extracellular domain; also called hFcγR Ia; hFcγRIa
# [4] = molecular target: T6, human FcγRIIIa F extracellular domain (human, UniProt P08637 17-208); assay: as above
# T6 construct: extracellular domain; also called hFcγR IIIa F
# [5] = molecular target: T2, human FcγRIIa H extracellular domain; assay: as above
# [6] = molecular target: T1, human FcγRIIb extracellular domain; assay: as above
# [7] = molecular target: T7, human FcγRIIIa V extracellular domain (human, UniProt P08637 17-208); assay: as above
# T7 construct: extracellular domain; also called hFcγR IIIa V
# [8] = molecular target: T3, human FcγRIIa R extracellular domain; assay: as above
# [9] = molecular target: T6, human FcγRIIIa F extracellular domain; assay: SPR Biacore 8K+; KD for FcγRIIb divided by KD for this FcγR;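 also: antibodies captured on an anti-human Fab kappa SA chip with soluble human FcγR ectodomains flowed over, FcγRIIb KD from steady-state fit, other FcγR KD from Langmuir model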
# Method: (§1) The interaction between the produced antibodies and human FcγRs was analyzed using Biacore 8K+ by the method below. For the running buffer, 50 mM Na-Phosphate, 150 mM NaCl, and 0.05% Tween20 (pH 7.4) was used, and measurement was performed at 25° C. The sensor chip used was a Series S SA chip (GE Healthcare) onto which CaptureSelect Human Fab-kappa Kinetics Biotin Conjugate (Thermo Fisher Scientific) was immobilized. An antibody of interest was captured onto this chip, and each FcγR diluted with the running buffer was allowed to interact with it. The chip was regenerated using 10 mM Glycine-HCl (pH 1.5), and repeatedly used to capture antibodies and perform measurement. The dissociation constants KD (mol/L) of each antibody for FcγRs were calculated using Biacore Insight Evaluation Software, with a steady state affinity model for the dissociation constant for FcγRIIb and a 1:1 Langmuir binding model for the dissociation constants for the other FcγRs (Table 48).
# [10] = molecular target: T2, human FcγRIIa H extracellular domain; assay: as above
# Method: as §1
# [11] = molecular target: T7, human FcγRIIIa V extracellular domain; assay: as above
# Method: as §1
# [12] = molecular target: T3, human FcγRIIa R extracellular domain; assay: as above
# Method: as §1
# [13] = molecular target: T5, human FcγRIa extracellular domain; assay: SPR Biacore 8K+, antibody captured, FcγR as analyte, 1:1 Langmuir model;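 also: antibodies captured on a streptavidin chip through a biotinylated anti-human Fab kappa reagent, with FcγR extracellular domains injected in pH 7.4 phosphate buffer at 25 °C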
# [14] = molecular target: T6, human FcγRIIIa F extracellular domain; assay: as above
# [15] = molecular target: T2, human FcγRIIa H extracellular domain; assay: as above
# [16] = molecular target: T7, human FcγRIIIa V extracellular domain; assay: as above
# [17] = molecular target: T3, human FcγRIIa R extracellular domain; assay: as above
# [18] = molecular target: T4, hFcγRIIaH on hFcγRIIaH-expressing …; assay: cell-based or functional assay
# T5 sequence (P12314 16-292): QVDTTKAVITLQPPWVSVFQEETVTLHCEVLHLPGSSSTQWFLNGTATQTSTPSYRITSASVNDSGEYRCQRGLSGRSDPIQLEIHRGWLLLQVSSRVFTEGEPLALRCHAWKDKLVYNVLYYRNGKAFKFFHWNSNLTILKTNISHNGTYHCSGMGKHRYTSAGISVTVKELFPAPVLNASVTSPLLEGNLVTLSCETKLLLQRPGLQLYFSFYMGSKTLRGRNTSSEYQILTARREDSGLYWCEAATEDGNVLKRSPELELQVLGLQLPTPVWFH
# T6 sequence (P08637 17-208): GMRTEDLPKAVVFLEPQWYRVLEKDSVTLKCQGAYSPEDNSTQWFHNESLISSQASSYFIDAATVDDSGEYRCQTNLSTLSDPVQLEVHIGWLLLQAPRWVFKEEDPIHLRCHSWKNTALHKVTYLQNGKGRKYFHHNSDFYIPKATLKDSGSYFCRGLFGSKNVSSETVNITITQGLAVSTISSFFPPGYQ
# T7 sequence (P08637 17-208 F176V limits assumed): as the sequence (P08637 17-208) above, with F160V counted along it
# Chain of hFcγRIIIaV on hFcγRIIIaV-expressing Jurkat cells (P08637 17-254, form in doubt): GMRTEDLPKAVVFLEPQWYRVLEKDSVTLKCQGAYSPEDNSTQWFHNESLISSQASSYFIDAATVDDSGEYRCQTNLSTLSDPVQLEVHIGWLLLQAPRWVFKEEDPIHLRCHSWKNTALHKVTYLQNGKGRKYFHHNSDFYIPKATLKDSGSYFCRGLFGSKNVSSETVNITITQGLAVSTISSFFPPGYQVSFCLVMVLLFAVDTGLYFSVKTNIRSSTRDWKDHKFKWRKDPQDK
"EC50 value (hFcγRIIIaV ADCC Reporter Bioassay, Hepa1-6/hEREG target cells) [1]",Kd [2],Relative value to KD between G1d and hFcgRs [3],Relative value to KD between G1d and hFcgRs [4],Relative value to KD between G1d and hFcgRs [5],Relative value to KD between G1d and hFcgRs [6],Relative value to KD between G1d and hFcgRs [7],Relative value to KD between G1d and hFcgRs [8],A/I ratio (KD for FcγRIIb divided by KD for each FcγR) [9],A/I ratio (KD for FcγRIIb divided by KD for each FcγR) [10],A/I ratio (KD for FcγRIIb divided by KD for each FcγR) [11],A/I ratio (KD for FcγRIIb divided by KD for each FcγR) [12],Kd [13],Kd [14],Kd [15],Kd [16],Kd [17],"EC50 value (hFcγRIIaH ADCP Reporter Bioassay, Hepa1-6/hEREG target cells) [18]",Binder
1.35 ng/mL,0.44 µM,3.4,460,14.7,22.8,215,49,68.4,5.8,264,13,0.0264 nM,6.43 nM,76.4 nM,1.67 nM,33.8 nM,0.0218 µg/mL,"H240-Kn120/L73-k0//H240-Hl068/L73-k0 (antibody, human IgG1, kappa, also called EGL-ART2; ART2) heavy 1: QDQLVQSGAEVKKPGASVKVSCKASGFNIKDTYIQWVRQAPGQGLEWMGRIDPLRKQTKYREKFEGRVTITADTSTNTAYMELSSLRSEDTAVYYCVRSGREFDYWGQGTLVTVSSASTKGPSVFPLAPSSKSTSGGTAALGCLVKDYFPEPVTVSWNSGALTSGVHTFPAVLQSSGLYSLSSVVTVPSSSLGTQTYICNVNHKPSNTKVDKKVEPKSCDKTHTCPPCPAPEYYWGPMVFLFPPKPKDTLMISRTPEVTCVVVDVSDEDPEVKFNWYVDGVEVHNAKTKPREEQYNATYRVVSVLTVLHQDWLNGKEYKCKVSNKDLPAPIEKTISKAKGQPREPQVCTLPPSRDELTKNQVSLWCLVKGFYPSDIAVEWESNGQPENNYKTTPPVLDSDGSFFLYSKLTVDKSRWQQGNVFSCSVMHEALHNHYTQKSLSLSP heavy 2: QDQLVQSGAEVKKPGASVKVSCKASGFNIKDTYIQWVRQAPGQGLEWMGRIDPLRKQTKYREKFEGRVTITADTSTNTAYMELSSLRSEDTAVYYCVRSGREFDYWGQGTLVTVSSASTKGPSVFPLAPSSKSTSGGTAALGCLVKDYFPEPVTVSWNSGALTSGVHTFPAVLQSSGLYSLSSVVTVPSSSLGTQTYICNVNHKPSNTKVDKKVEPKSCDKTHTCPPCPAPELLGGPSVFLFPPKPKDTLMISRTPEVTCVVVDVSHEEPEVKFNWYVDGVEVHNAKTKPREEQYNSTYRVVSVLTVLHQDWLNGKEYKCKVSNDALPKPIEETISKAKGQPREPQVYTLPPSRCELTKNQVSLSCAVKGFYPSDIAVEWESNGQPENNYKTTPPVLDSDGSFFLVSKLTVDKSRWQQGNVFSCSVMHEALHNHYTQKSLSLSP light: DIQMTQSPSSLSASVGDRVTITCRASQDIHKYIAWYQQKPGQAPRLLIQYTSTLQPGVPSRFSGSGSGTDYTFTISSLQPEDIATYYCLQYEQLRTFGGGTKVEIKRTVAAPSVFIFPPSDEQLKSGTASVVCLLNNFYPREAKVQWKVDNALQSGNSQESVTEQDSKDSTYSLSSTLTLSKADYEKHKVYACEVTHQGLSSPVTKSFNRGEC"
0.716 ng/mL,12.5 µM,3,1170,4.3,0.8,323,1.6,4950,47.4,11300,12.4,0.0302 nM,2.53 nM,264 nM,1.11 nM,1010 nM,0.0353 µg/mL,"H240-Kn125/L73-k0//H240-Hl076/L73-k0 (antibody, human IgG1, kappa, Anti-human Epiregulin heterodimerized IgG1 Fc variant; also called EGL-ART1; ART1) heavy 1: QDQLVQSGAEVKKPGASVKVSCKASGFNIKDTYIQWVRQAPGQGLEWMGRIDPLRKQTKYREKFEGRVTITADTSTNTAYMELSSLRSEDTAVYYCVRSGREFDYWGQGTLVTVSSASTKGPSVFPLAPSSKSTSGGTAALGCLVKDYFPEPVTVSWNSGALTSGVHTFPAVLQSSGLYSLSSVVTVPSSSLGTQTYICNVNHKPSNTKVDKKVEPKSCDKTHTCPPCPAPEYQWGPMVFLFPPKPKDTLMISRTPEVTCVVVDVSDEEPEVKFNWYVDGVEVHNAKTKPREEQYNATYRVVSVLTVLHQDWLNGKEYKCKVSNKALPAPIEKTISKAKGQPREPQVCTLPPSRDELTKNQVSLWCLVKGFYPSDIAVEWESNGQPENNYKTTPPVLDSDGSFFLYSKLTVDKSRWQQGNVFSCSVMHEALHNHYTQKSLSLSP heavy 2: QDQLVQSGAEVKKPGASVKVSCKASGFNIKDTYIQWVRQAPGQGLEWMGRIDPLRKQTKYREKFEGRVTITADTSTNTAYMELSSLRSEDTAVYYCVRSGREFDYWGQGTLVTVSSASTKGPSVFPLAPSSKSTSGGTAALGCLVKDYFPEPVTVSWNSGALTSGVHTFPAVLQSSGLYSLSSVVTVPSSSLGTQTYICNVNHKPSNTKVDKKVEPKSCDKTHTCPPCPAPELLGGPSVFLFPPKPKDTLMISRTPEVTCVVVDVSHEEPEVKFNWYVDGVEVHNAKTKPREEQYNSTYRVVSVLTVLHQDWLNGKEYKCKVSNDALPMPIEETISKAKGQPREPQVYTLPPSRCELTKNQVSLSCAVKGFYPSDIAVEWESNGQPENNYKTTPPVLDSDGSFFLVSKLTVDKSRWQQGNVFSCSVMHEALHNHYTQKSLSLSP light: DIQMTQSPSSLSASVGDRVTITCRASQDIHKYIAWYQQKPGQAPRLLIQYTSTLQPGVPSRFSGSGSGTDYTFTISSLQPEDIATYYCLQYEQLRTFGGGTKVEIKRTVAAPSVFIFPPSDEQLKSGTASVVCLLNNFYPREAKVQWKVDNALQSGNSQESVTEQDSKDSTYSLSSTLTLSKADYEKHKVYACEVTHQGLSSPVTKSFNRGEC"
